Consider five molecules from patent US20230357348A1 (AstraZeneca / MedImmune, published 2023).

Starred links: 1 amine or outer side, 2 acyl side, 3 side chain; linkers in the order of their positions; H or OH if unused. Non-standard residues stand in square brackets, D forms with d. Groups on a side chain read outwards from the residue. No end group written: not given here. *: point of attachment. C20 diacid = O=C(O)CCCCCCCCCCCCCCCCCCC(=O)*; C18 diacid = O=C(O)CCCCCCCCCCCCCCCCC(=O)*; γGlu = O=C(O)[C@H](CCC(=O)[*:2])N[*:1]; αMeF = C[C@](N)(Cc1ccccc1)C(=O)O; AEEA = NCCOCCOCC(=O)O; Aib = CC(C)(N)C(=O)O

Assay [1] addresses human glucagon receptor (hGCGR) (human, UniProt P47871 26-477). Nature of the assay: cell-based or functional assay.
Assay [2] deals with human GLP-1 receptor (hGLP-1R) (human, UniProt P43220 24-463). As to the kind of experiment: cell-based or functional assay.

Sequence of human glucagon receptor (hGCGR) (P47871 26-477): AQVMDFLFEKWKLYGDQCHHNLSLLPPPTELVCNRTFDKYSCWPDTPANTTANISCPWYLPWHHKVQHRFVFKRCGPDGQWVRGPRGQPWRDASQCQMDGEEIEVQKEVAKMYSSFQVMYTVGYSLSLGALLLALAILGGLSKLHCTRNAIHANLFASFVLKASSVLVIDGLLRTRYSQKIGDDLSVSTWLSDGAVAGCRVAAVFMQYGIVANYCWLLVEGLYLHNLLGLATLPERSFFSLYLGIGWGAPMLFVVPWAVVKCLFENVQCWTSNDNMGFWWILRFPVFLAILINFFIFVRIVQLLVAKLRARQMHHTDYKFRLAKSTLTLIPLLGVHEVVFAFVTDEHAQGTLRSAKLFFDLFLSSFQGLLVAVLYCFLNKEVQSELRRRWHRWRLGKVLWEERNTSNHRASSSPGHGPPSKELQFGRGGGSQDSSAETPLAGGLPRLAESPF

B1: Peptide 513 (peptide)
peptide: H[Aib]QGT[αMeF]TSDVSK[αMeF]LDTK([AEEA-AEEA-γGlu-C18 diacid])RARD[αMeF]VQWLLA[Aib]G-NH2
modifications: N-terminus assumed
SMILES: CC(C)C[C@H](NC(=O)[C@H](CC(C)C)NC(=O)[C@H](Cc1c[nH]c2ccccc12)NC(=O)[C@H](CCC(N)=O)NC(=O)[C@@H](NC(=O)[C@](C)(Cc1ccccc1)NC(=O)[C@H](CC(=O)O)NC(=O)[C@H](CCCNC(=N)N)NC(=O)[C@H](C)NC(=O)[C@H](CCCNC(=N)N)NC(=O)[C@H](CCCCNC(=O)COCCOCCNC(=O)COCCOCCNC(=O)CC[C@H](NC(=O)CCCCCCCCCCCCCCCCC(=O)O)C(=O)O)NC(=O)[C@@H](NC(=O)[C@H](CC(=O)O)NC(=O)[C@H](CC(C)C)NC(=O)[C@](C)(Cc1ccccc1)NC(=O)[C@H](CCCCN)NC(=O)[C@H](CO)NC(=O)[C@@H](NC(=O)[C@H](CC(=O)O)NC(=O)[C@H](CO)NC(=O)[C@@H](NC(=O)[C@](C)(Cc1ccccc1)NC(=O)[C@@H](NC(=O)CNC(=O)[C@H](CCC(N)=O)NC(=O)C(C)(C)NC(=O)[C@@H](N)Cc1c[nH]cn1)[C@@H](C)O)[C@@H](C)O)C(C)C)[C@@H](C)O)C(C)C)C(=O)N[C@@H](C)C(=O)NC(C)(C)C(=O)NCC(N)=O
With B1, the “hGluc-R EC50 (pM)” value in assay [1] was determined as 1340 pM. Further, in assay [2], the “hGLP-1R EC50 (pM)” value amounted to 93.8 pM.

B2: Peptide 514 (peptide)
peptide: H[Aib]QGTFTSDVSK[αMeF]LDTK([AEEA-AEEA-γGlu-C18 diacid])AARDFVQWLLE[Aib]G-NH2
modifications: N-terminus assumed
SMILES: CC(C)C[C@H](NC(=O)[C@H](Cc1c[nH]c2ccccc12)NC(=O)[C@H](CCC(N)=O)NC(=O)[C@@H](NC(=O)[C@H](Cc1ccccc1)NC(=O)[C@H](CC(=O)O)NC(=O)[C@H](CCCNC(=N)N)NC(=O)[C@H](C)NC(=O)[C@H](C)NC(=O)[C@H](CCCCNC(=O)COCCOCCNC(=O)COCCOCCNC(=O)CC[C@H](NC(=O)CCCCCCCCCCCCCCCCC(=O)O)C(=O)O)NC(=O)[C@@H](NC(=O)[C@H](CC(=O)O)NC(=O)[C@H](CC(C)C)NC(=O)[C@](C)(Cc1ccccc1)NC(=O)[C@H](CCCCN)NC(=O)[C@H](CO)NC(=O)[C@@H](NC(=O)[C@H](CC(=O)O)NC(=O)[C@H](CO)NC(=O)[C@@H](NC(=O)[C@H](Cc1ccccc1)NC(=O)[C@@H](NC(=O)CNC(=O)[C@H](CCC(N)=O)NC(=O)C(C)(C)NC(=O)[C@@H](N)Cc1c[nH]cn1)[C@@H](C)O)[C@@H](C)O)C(C)C)[C@@H](C)O)C(C)C)C(=O)N[C@@H](CC(C)C)C(=O)N[C@@H](CCC(=O)O)C(=O)NC(C)(C)C(=O)NCC(N)=O
Consider B2, for which the “hGluc-R EC50 (pM)” value in assay [1] is 1370 pM. In addition, the “hGLP-1R EC50 (pM)” value in assay [2] worked out at 76.7 pM.

B3: Peptide 515 (peptide)
peptide: H[Aib]QGTFTSDVSK[αMeF]LDTK([AEEA-AEEA-γGlu-C20 diacid])AARDFVQWLLE[Aib]G-NH2
modifications: N-terminus assumed
SMILES: CC(C)C[C@H](NC(=O)[C@H](Cc1c[nH]c2ccccc12)NC(=O)[C@H](CCC(N)=O)NC(=O)[C@@H](NC(=O)[C@H](Cc1ccccc1)NC(=O)[C@H](CC(=O)O)NC(=O)[C@H](CCCNC(=N)N)NC(=O)[C@H](C)NC(=O)[C@H](C)NC(=O)[C@H](CCCCNC(=O)COCCOCCNC(=O)COCCOCCNC(=O)CC[C@H](NC(=O)CCCCCCCCCCCCCCCCCCC(=O)O)C(=O)O)NC(=O)[C@@H](NC(=O)[C@H](CC(=O)O)NC(=O)[C@H](CC(C)C)NC(=O)[C@](C)(Cc1ccccc1)NC(=O)[C@H](CCCCN)NC(=O)[C@H](CO)NC(=O)[C@@H](NC(=O)[C@H](CC(=O)O)NC(=O)[C@H](CO)NC(=O)[C@@H](NC(=O)[C@H](Cc1ccccc1)NC(=O)[C@@H](NC(=O)CNC(=O)[C@H](CCC(N)=O)NC(=O)C(C)(C)NC(=O)[C@@H](N)Cc1c[nH]cn1)[C@@H](C)O)[C@@H](C)O)C(C)C)[C@@H](C)O)C(C)C)C(=O)N[C@@H](CC(C)C)C(=O)N[C@@H](CCC(=O)O)C(=O)NC(C)(C)C(=O)NCC(N)=O
With B3, in assay [1], the “hGluc-R EC50 (pM)” value worked out at 2660 pM. Also, the “hGLP-1R EC50 (pM)” value in assay [2] is 297 pM.

B4: Peptide 517 (peptide)
peptide: H[Aib]QGTFTSDVSK[αMeF]LEAK([AEEA-AEEA-γGlu-γGlu-C18 diacid])AAREFIAWLLET-NH2
modifications: N-terminus assumed
SMILES: CC[C@H](C)[C@H](NC(=O)[C@H](Cc1ccccc1)NC(=O)[C@H](CCC(=O)O)NC(=O)[C@H](CCCNC(=N)N)NC(=O)[C@H](C)NC(=O)[C@H](C)NC(=O)[C@H](CCCCNC(=O)COCCOCCNC(=O)COCCOCCNC(=O)CC[C@H](NC(=O)CC[C@H](NC(=O)CCCCCCCCCCCCCCCCC(=O)O)C(=O)O)C(=O)O)NC(=O)[C@H](C)NC(=O)[C@H](CCC(=O)O)NC(=O)[C@H](CC(C)C)NC(=O)[C@](C)(Cc1ccccc1)NC(=O)[C@H](CCCCN)NC(=O)[C@H](CO)NC(=O)[C@@H](NC(=O)[C@H](CC(=O)O)NC(=O)[C@H](CO)NC(=O)[C@@H](NC(=O)[C@H](Cc1ccccc1)NC(=O)[C@@H](NC(=O)CNC(=O)[C@H](CCC(N)=O)NC(=O)C(C)(C)NC(=O)[C@@H](N)Cc1c[nH]cn1)[C@@H](C)O)[C@@H](C)O)C(C)C)C(=O)N[C@@H](C)C(=O)N[C@@H](Cc1c[nH]c2ccccc12)C(=O)N[C@@H](CC(C)C)C(=O)N[C@@H](CC(C)C)C(=O)N[C@@H](CCC(=O)O)C(=O)N[C@H](C(N)=O)[C@@H](C)O
For B4, in assay [1], the “hGluc-R EC50 (pM)” value was 738 pM. For the same molecule, the “hGLP-1R EC50 (pM)” value in assay [2] was 146 pM.

B5: Peptide 136 (peptide)
peptide: H[Aib]QGTFTSDVSK[αMeF]LDSK([γGlu-γGlu-AEEA-AEEA-γGlu-γGlu-C18 diacid])RARDFVRWLLE[Aib]G-OH
modifications: N-terminus assumed
SMILES: CC(C)C[C@H](NC(=O)[C@H](Cc1c[nH]c2ccccc12)NC(=O)[C@H](CCCNC(=N)N)NC(=O)[C@@H](NC(=O)[C@H](Cc1ccccc1)NC(=O)[C@H](CC(=O)O)NC(=O)[C@H](CCCNC(=N)N)NC(=O)[C@H](C)NC(=O)[C@H](CCCNC(=N)N)NC(=O)[C@H](CCCCNC(=O)CC[C@H](NC(=O)CC[C@H](NC(=O)COCCOCCNC(=O)COCCOCCNC(=O)CC[C@H](NC(=O)CC[C@H](NC(=O)CCCCCCCCCCCCCCCCC(=O)O)C(=O)O)C(=O)O)C(=O)O)C(=O)O)NC(=O)[C@H](CO)NC(=O)[C@H](CC(=O)O)NC(=O)[C@H](CC(C)C)NC(=O)[C@](C)(Cc1ccccc1)NC(=O)[C@H](CCCCN)NC(=O)[C@H](CO)NC(=O)[C@@H](NC(=O)[C@H](CC(=O)O)NC(=O)[C@H](CO)NC(=O)[C@@H](NC(=O)[C@H](Cc1ccccc1)NC(=O)[C@@H](NC(=O)CNC(=O)[C@H](CCC(N)=O)NC(=O)C(C)(C)NC(=O)[C@@H](N)Cc1c[nH]cn1)[C@@H](C)O)[C@@H](C)O)C(C)C)C(C)C)C(=O)N[C@@H](CC(C)C)C(=O)N[C@@H](CCC(=O)O)C(=O)NC(C)(C)C(=O)NCC(=O)O
With B5, the “hGluc-R EC50 (pM)” value in assay [1] stood at 509 pM. In addition, the “hGLP-1R EC50 (pM)” value in assay [2] worked out at 45.2 pM.
